15 molecules from patent US20020045192A1 (ST JUDE CHILDREN S RESEARCH HOSPITAL, published 2002) can be followed below.

Where no end group is shown, it is not given here.

For assay [1], the target named is T1, His-tagged Hdm2 210-304 (human, UniProt Q00987 210-304).
T1 construct: Captured on the C-1 chip by anti-His antibody for the Arf peptide library SPR; Tag placed first here
Description: SPR, His-tagged Hdm2 210-304 captured by anti-His antibody, peptide injected 10 min, signal minus reference cell [a]. On the procedure:
(§1) Reactive sites remaining on the surface were blocked by reaction with ethanolamine. The His-tagged ligand was attached to the antibody by injecting a 5-10 μg/ml solution of the ligand in 10 mM HEPES, 150 mM NaCl, pH 7.4 (HBS-N buffer, Biacore) at a flow rate of 10 μL/min through the flow cell. A reference cell was prepared similarly except that no His-tagged ligand was added. Binding was measured by flowing the non-His-tagged analyte through the reference and ligand-containing flow cells in sequence. Prior to injection of ligands, the chip surfaces were equilibrated in HBS-N buffer. Changes in the SPR response due to solvent differences and the injection process were monitored by injection of HBS-N buffer alone. Regeneration of the chip surface to remove bound analyte and ligand was accomplished by two 100 μL injections of 10 mM glycine, pH 2.0 through both flow cells. Data reported is the difference in SPR signal between the flow cell containing analyte and the reference cell. Duplicate injections were made and the SPR response values reported are the average of these two injections.
(§2) Two libraries of peptides 15 amino acids in length were synthesized based on the sequence of exon 1β of mouse p19^Arf and the entire sequence of human p14^Arf. The sequence for the first peptide in each library corresponded to the first 15 amino acids of the protein sequences. […] This approach yielded two libraries of overlapping peptides spanning mouse p19^Arf residues 1-64 and human p14^Arf residues 1-132. The ability of these peptides to bind Hdm2 fragments was determined using the surface plasmon resonance (SPR) technique with a Biacore 3000 instrument. […] Library peptides were allowed to flow over the Hdm2 surface, or over a control surface lacking an Hdm2 fragment.

The target of assay [2] is T2, Hdm2 210-304 (residues 210-304 of SEQ ID NO:8, His tag cleaved) (human, UniProt Q00987 210-304).
T2 construct: Non-His-tagged analyte in SPR; also used in CD, NMR, gel filtration
T2 sequence (Q00987 210-304): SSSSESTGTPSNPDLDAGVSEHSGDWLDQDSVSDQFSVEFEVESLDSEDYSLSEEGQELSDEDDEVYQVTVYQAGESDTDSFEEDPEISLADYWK
Description: CD-based binding assay.

The target in assay [3] is T3, Hdm2 210-275 (residues 210-275 of SEQ ID NO:8, His tag cleaved) (human, UniProt Q00987 210-275). Description: CD-based binding assay.
T3 sequence (Q00987 210-275): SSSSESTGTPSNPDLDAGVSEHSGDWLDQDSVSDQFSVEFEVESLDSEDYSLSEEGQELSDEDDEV
Assay [4] addresses T4, Hdm2 peptide, residues 275-289 of SEQ ID NO:8 (H2 segment) (human).
T4 construct: also called H2 peptide; one from the H2 segment
T4 peptide: Ac-VYQVTVYQAGESDTD-NH2
The assay can be described thus: CD titration, failure to induce structure.

Assay [5] concerns the target T5, His-tagged mArfN37 (N-terminal 37 amino acids of mouse p19Arf with poly-His tag) (mouse).
T5 construct: Captured on the SPR chip by a covalently linked anti-His antibody; Tag placed first here; also called His-mArfN37; His-tagged mArf37
T5 chain: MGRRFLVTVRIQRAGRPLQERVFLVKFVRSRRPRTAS
The assay can be described thus: SPR, His-tagged mArfN37 captured by anti-His antibody, peptide injected, signal minus reference cell [c]. As to the method: as §1, with “Binding studies were performed using a Biacore 3000 surface plasmon resonance (SPR) instrument (Biacore, Inc.). A Tetra-His™ Antibody (Qiagen, Inc.; Cat. #34670) was covalently attached to a carboxymethylated gold surface (C-1 chip; Biacore, Inc.). The carboxymethyl groups on the surface were activated with N-ethyl-N′-(3-dimethylaminopropyl) carbodiimide (EDC) and N-hydroxysuccinimide (NHS) and the antibody was attached at pH 7.4 in 20 mM sodium phosphate buffer, 150 mM NaCl (PBS). Reactive” for “Reactive”
A similar approach using short synthetic peptides and SPR was used to map the segments of Hdm2 that bind mArfN37 (FIG. 5c). […] The first of these as Arf-binding segment is termed “H1” and the second is termed segment “H2”.
For orientation: In SPR one partner is held on a chip, and binding of the other changes the refractive index at the surface.

The target in assay [6] is T2, Hdm2 210-304 (residues 210-304 of SEQ …). The assay can be described thus: CD titration, ellipticity at 200 nm. On the procedure: (§3) Further, saturable binding is also observed when the Hdm2 fragments were added to an excess of mArfN37.
In assay [7] the target is T3, Hdm2 210-275 (residues 210-275 of SEQ …). The assay can be described thus: CD titration, ellipticity at 200 nm. As to the method:
as §3

The target in assay [8] is T1, His-tagged Hdm2 210-304. The assay can be described thus: SPR, His-tagged Hdm2 210-304 captured by anti-His antibody, peptide injected 10 min, signal minus reference cell [b]. On the procedure: as §1, §2

For orientation: Kd means the equilibrium constant for the complex coming apart. Read a high Kd as lower affinity.

T1 sequence (Q00987 210-304): as the sequence (Q00987 210-304) above

B1: 1-15 (mouse Arf peptide) (peptide)
peptide: Ac-MGRRFLVTVRIQRAG-NH2
notes: also called mouse p19Arf library peptide, residues 1-15
For B1, the binding result with His-tagged Hdm2 210-304 [1] was “binds”.

B2: mouse Arf motif peptide A1 (1-14) (peptide)
peptide: Ac-MGRRFLVTVRIQRA-NH2
notes: the peptide tested spans 1-14; also called mouse A1
With B2, the binding result in assay [2] was “binds”; in assay [3], “binds”; in assay [4] it was “no binding (tested: 1-10 µM (concentrations used))”.

B3: 41-55 (mouse Arf peptide) (peptide)
peptide: Ac-AFVNMLLRLERILRR-NH2
notes: also called mouse p19Arf library peptide, residues 41-55
In the case of B3, in the assay with His-tagged Hdm2 210-304 [1], the binding result is reported as “no binding”.

B4: mouse Arf motif peptide A2 (16-30) (peptide)
peptide: Ac-RPLQERVFLVKFVRS-NH2
notes: Same limits as the fourth peptide of the mouse library, so possibly a member of group m12; also called mouse A2
Turning to B4, the binding result in assay [2] is “binds”; in assay [3], “no binding”; in assay [4] it was “no binding (tested: 1-10 µM (concentrations used))”; in the assay with His-tagged Hdm2 210-304 [1] it was “binds”.

B5: 325-339 (Hdm2 peptide) (peptide)
peptide: Ac-LRENWLPEDKGKDKG-NH2
notes: also called Hdm2 library peptide, residues 325-339
Take B5: the binding result in assay [5] is recorded as “no binding”.

B6: 26-40 (mouse Arf peptide) (peptide)
peptide: Ac-KFVRSRRPRTASCAL-NH2
notes: also called mouse p19Arf library peptide, residues 26-40
For the molecule B6, the binding result with His-tagged Hdm2 210-304 [1] was “binds”.

B7: human Arf motif peptide A1 (1-14) (peptide)
peptide: Ac-MVRRFLVTLRIRRA-NH2
notes: the peptide tested spans 1-14; also called human A1
On to B7, for which the binding result in assay [2] was “binds”; in assay [3] it was “binds”; in assay [4] it was “no binding (tested: 1-10 µM (concentrations used))”.

B8: 21-35 (mouse Arf peptide) (peptide)
peptide: Ac-RVFLVKFVRSRRPRT-NH2
notes: also called mouse p19Arf library peptide, residues 21-35
For B8, in the assay with His-tagged Hdm2 210-304 [1], the binding result is “binds”.

B9: 6-20 (mouse Arf peptide) (peptide)
peptide: Ac-LVTVRIQRAGRPLQE-NH2
notes: also called mouse p19Arf library peptide, residues 6-20
Regarding B9, the binding result with His-tagged Hdm2 210-304 [1] is reported as “binds”. Ac-RRPRTASCALAFVNM-NH2 [mouse p19Arf library peptide, residues 31-45 (contains the NoLS RRPR)]: in the assay with His-tagged Hdm2 210-304 [1], the binding result was “binds”.

B10: mArfN37 (N-terminal fragment of mouse p19Arf, residues 1-37, His tag cleaved) (peptide)
chain: MGRRFLVTVRIQRAGRPLQERVFLVKFVRSRRPRTAS
modifications: not fully specified
notes: Tag-cleaved form used in CD, NMR and gel filtration; also called 15N-mArfN37
B10: the Kd in assay [6] and in assay [7] was under 5 µM each time.

B11: human p14Arf peptide, residues 16-30 (contains the human A2 motif) (peptide)
peptide: Ac-GPPRVRVFVVHIPRL-NH2
notes: the peptide tested is the 15-mer 16-30; also called fourth peptide of the human library; human A2 (16-30)
With B11, the binding result in assay [2] is reported as “binds”; in assay [3], “no binding”; in assay [4], “no binding (tested: 1-10 µM (concentrations used))”; with His-tagged Hdm2 210-304 [8], “binds”.

B12: 11-25 (mouse Arf peptide) (peptide)
peptide: Ac-IQRAGRPLQERVFLV-NH2
notes: also called mouse p19Arf library peptide, residues 11-25
Consider B12, for which the binding result with His-tagged Hdm2 210-304 [1] is on record as “no binding”.

B13: 335-349 (Hdm2 peptide) (peptide)
peptide: Ac-GKDKGEISEKAKLEN-NH2
notes: also called Hdm2 library peptide, residues 335-349
Turning to B13, the binding result in assay [5] is on record as “no binding”.

B14: 330-344 (Hdm2 peptide) (peptide)
peptide: Ac-LPEDKGKDKGEISEK-NH2
notes: also called Hdm2 library peptide, residues 330-344
Regarding B14, the binding result in assay [5] was “no binding”.
